{
  "source": "patent US20160090425",
  "proteins": {"B1": {"name": "human C1s enzyme purified from human plasma (Complement Technology Inc., Cat # A103) (protein)", "chain": "EPTMYGEILSPNYPQAYPSEVEKSWDIEVPEGYGIHLYFTHLDIELSENCAYDSVQIISGDTEEGRLCGQRSSNNPHSPIVEEFQVPYNKLQVIFKSDFSNEERFTGFAAYYVATDINECTDFVDVPCSHFCNNFIGGYFCSCPPEYFLHDDMKNCGVNCSGDVFTALIGEIASPNYPKPYPENSRCEYQIRLEKGFQVVVTLRREDFDVEAADSAGNCLDSLVFVAGDRQFGPYCGHGFPGPLNIETKSNALDIIFQTDLTGQKKGWKLRYHGDPMPCPKEDTPNSVWEPAKAKYVFRDVVQITCLDGFEVVEGRVGATSFYSTCQSNGKWSNSKLKCQPVDCGIPESIENGKVEDPESTLFGSVIRYTCEEPYYYMENGGGGEYHCAGNGSWVNEVLGPELPKCVPVCGVPREPFEEKQRIIGGSDADIKNFPWQVFFDNPWAGGALINEYWVLTAAHVVEGNREPTMYVGSTSVQTSRLAKSKMLTPEHVFIHPGWKLLEVPEGRTNFDNDIALVRLKDPVKMGPTVSPICLPGTSSDYNLMDGDLGLISGWGRTEKRDRAVRLKAARLPVAPLRKCKEVKVEKPTADAEAYVFTPNMICAGGEKGMDSCKGDSGGAFAVQDPNDKTKFYAAGLVSWGPQCGTYGLYTRVKNYVDWIMKTMQENSTPRED"}},
  "molecular_target": "six other anti-C1s binding antibodies",
  "data": [
    {"protein": "B1", "values": [
      {"measurement": "C1s-mediated C4 α-chain cleavage (SDS gel), antibody at approximately 10-fold molar excess", "value": "six other anti-C1s binding antibodies, including the C1s binding antibody 3F8 (see FIG. 1, Example 2), did not show inhibitory activity"}
    ]}
  ]
}
